# Measurements: paper PMC7203548
# Experiments:
# [1] = target: OTK1-5 K237A ectodomain, biotinylated (pHL-Avitag3) (Drosophila melanogaster) (UniProt Q6AWJ9); test: SPR; equilibrium, apparent KD; biotinylated OTK immobilised on SA chip from dialysed conditioned medium; Biacore T200, PBS, 0.05% Tween 20, 25°C
# [2] = target: PlexA_(ecto) (full-length ectodomain of Drosophila Plexin A, all ten domains, residues 28-1272), biotinylated (Drosophila) (UniProt Q9V491); test: SPR; equilibrium, apparent KD; biotinylated PlexA constructs immobilised on SA chip from dialysed conditioned medium; Biacore T200, PBS, 0.05% Tween 20, 25°C
# UniProt Q9V491, sequence (Q9V491 entry or part of it): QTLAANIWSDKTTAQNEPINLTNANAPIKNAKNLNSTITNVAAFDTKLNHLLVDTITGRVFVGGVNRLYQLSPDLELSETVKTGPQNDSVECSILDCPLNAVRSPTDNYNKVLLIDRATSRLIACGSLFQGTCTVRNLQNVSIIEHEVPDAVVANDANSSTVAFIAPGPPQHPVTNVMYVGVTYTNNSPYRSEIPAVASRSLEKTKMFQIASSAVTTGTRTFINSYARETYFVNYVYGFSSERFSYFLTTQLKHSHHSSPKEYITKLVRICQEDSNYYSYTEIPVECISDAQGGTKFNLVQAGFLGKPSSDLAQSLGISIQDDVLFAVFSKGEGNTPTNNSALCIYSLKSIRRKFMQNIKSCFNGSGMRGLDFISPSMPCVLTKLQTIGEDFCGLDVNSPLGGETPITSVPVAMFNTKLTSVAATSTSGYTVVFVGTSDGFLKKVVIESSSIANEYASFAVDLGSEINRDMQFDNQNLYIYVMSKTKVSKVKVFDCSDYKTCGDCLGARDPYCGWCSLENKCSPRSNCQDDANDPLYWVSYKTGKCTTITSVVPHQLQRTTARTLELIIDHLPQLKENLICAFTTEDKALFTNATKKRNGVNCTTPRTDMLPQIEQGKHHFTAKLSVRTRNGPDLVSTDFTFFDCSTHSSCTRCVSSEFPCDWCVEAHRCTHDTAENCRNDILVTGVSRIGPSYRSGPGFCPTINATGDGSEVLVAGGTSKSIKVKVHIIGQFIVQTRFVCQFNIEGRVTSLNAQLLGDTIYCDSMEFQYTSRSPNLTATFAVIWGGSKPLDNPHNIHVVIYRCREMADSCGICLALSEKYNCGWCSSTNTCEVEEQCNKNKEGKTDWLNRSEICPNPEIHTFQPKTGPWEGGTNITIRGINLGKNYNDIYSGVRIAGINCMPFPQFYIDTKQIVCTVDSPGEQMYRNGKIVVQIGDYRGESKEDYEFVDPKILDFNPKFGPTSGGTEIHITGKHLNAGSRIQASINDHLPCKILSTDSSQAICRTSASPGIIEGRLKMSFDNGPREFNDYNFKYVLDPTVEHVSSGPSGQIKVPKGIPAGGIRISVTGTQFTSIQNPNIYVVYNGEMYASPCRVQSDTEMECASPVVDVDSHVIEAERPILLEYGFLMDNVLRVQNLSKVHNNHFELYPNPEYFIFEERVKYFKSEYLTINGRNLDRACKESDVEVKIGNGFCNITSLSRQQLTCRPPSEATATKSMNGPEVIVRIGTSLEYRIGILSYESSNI
# UniProt Q6AWJ9, sequence (Q6AWJ9 23-580 K237A): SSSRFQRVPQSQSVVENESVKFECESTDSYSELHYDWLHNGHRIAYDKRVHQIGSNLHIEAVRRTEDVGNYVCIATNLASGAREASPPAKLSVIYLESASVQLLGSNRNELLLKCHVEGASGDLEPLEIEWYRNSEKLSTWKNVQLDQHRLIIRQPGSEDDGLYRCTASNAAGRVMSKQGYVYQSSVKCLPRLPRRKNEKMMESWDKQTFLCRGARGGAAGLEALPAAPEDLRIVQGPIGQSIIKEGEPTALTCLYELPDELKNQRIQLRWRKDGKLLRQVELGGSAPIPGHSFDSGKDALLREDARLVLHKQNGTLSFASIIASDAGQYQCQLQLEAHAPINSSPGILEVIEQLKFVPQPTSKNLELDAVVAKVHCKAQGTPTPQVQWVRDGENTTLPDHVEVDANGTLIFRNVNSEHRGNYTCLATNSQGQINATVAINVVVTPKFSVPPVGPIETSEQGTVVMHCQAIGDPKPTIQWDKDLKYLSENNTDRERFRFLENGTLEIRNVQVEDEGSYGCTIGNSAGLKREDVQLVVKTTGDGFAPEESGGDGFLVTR
substance,measurement,setting,value
Sema1a ectodomain (Drosophila semaphorin 1a) (from UniProt Q24322 1-899) (ligand),Kd,[1],4 µM
same,Kd,[2],7.4 µM
